Test results published in paper doi:10.1101/2024.07.05.601840v1.

Tests used:
Test in all cases: purified protein
purified protein [1] = substrate: CC(=O)CC(=O)SCCNC(=O)CCNC(=O)[C@H](O)C(C)(C)COP(=O)(O)OP(=O)(O)OC[C@H]1O[C@@H](n2cnc3c(N)ncnc32)[C@H](O)[C@@H]1OP(=O)(O)O; conditions: 0.2 mM NADPH, pH 7 TRIS-HCl, 35°C
purified protein [2] = substrate: C[C@@H](O)CC(=O)SCCNC(=O)CCNC(=O)[C@H](O)C(C)(C)COP(=O)(O)OP(=O)(O)OC[C@H]1O[C@@H](n2cnc3c(N)ncnc32)[C@H](O)[C@@H]1OP(=O)(O)O; conditions: oxidative direction, 2 mM NADP+, pH 7 TRIS-HCl, 70°C
purified protein [3] = substrate: NC(=O)C1=CN([C@@H]2O[C@H](COP(=O)(O)OP(=O)(O)OC[C@H]3O[C@@H](n4cnc5c(N)ncnc54)[C@H](OP(=O)(O)O)[C@@H]3O)[C@@H](O)[C@H]2O)C=CC1; conditions: 0.3 mM AcAcCoA, pH 7 TRIS-HCl, 35°C, varied: cofactor

B1: ACR (Saci_1104) (Sulfolobus acidocaldarius DSM 639) (protein)
chain: MYSLKDKVVVVTGSGRGIGRAIALRLAQEGSKIVVNAKKRAEEVNETVEMVKKIGGDAVGVLADVGTKEGCETLLKSTLDKFGVVDILVNNAGLGLFSLFMNADDKLIEKHISVDFKSVVYCSQAFAREMREGGEIVNIASIAGVLPAYGLSMYGAMKGAVISLTKYMALELAPKIRVNAIAPGWVKTKLGESMYKLLNMSEKEFVEKTTLMGKMLEPEDIAEFVTAILKIEGLTGQVFVVDAGESIKRGIA
Question: What does the source list for B1?
Answer: Km (purified protein [1]): 77 ± 9 µM; kcat (purified protein [1]): 0.586 s⁻¹; Km (purified protein [2]): 160 ± 12 µM; kcat (purified protein [2]): 0.435 s⁻¹; Km (purified protein [3]): 24 ± 3 µM
